Key:
ST8SiaIV KO SW2 cells = assay: Flow cytometry binding to ST8SiaIV knockout cells; format: cell-based, human
Text: FIGS. 8A-8C depict binding of polySia-specific mAb to ST8SiaII and ST8SiaIV knockout cell lines. […] Data are the geometric mean fluorescence intensity (MFI), with the values reported as the average of three replicates and the error represented as the standard deviation of the mean. […] In the ST8SiaII KO SW2 cells, 73% of the population (FL1-H-) binds mo735 below the level of the wild-type SW2 cells. […] In the ST8SiaIV KO SW2 cells, 68% of the population (FL1-H-) binds mo735 below the level of the wild-type SW2 cells.
CRISPR guide RNAs targeting ST8SiaII (crRNA1: […]; SEQ ID NO: 5) and ST8Sia4 (crRNA1: […]; SEQ ID NO: 6) were purchased from Genscript in the pLentiCRISPR v2 vector. Knockout cell lines were generated in SW2 cells using protocols described by Zhang and colleagues (Shalem et al., “Genome-Scale CRISPR-Cas9 Knockout Screening in Human Cells,” Science 343:84-7 (2014), which is hereby incorporated by reference in its entirety). Briefly, after lentiviral transduction, cells were maintained under selection with 1 μg/mL puromycin for at least 14 days prior to analysis by flow cytometry.
Cancer cells were trypsinized and collected with media, followed by three washes in PBS. […] Cells were washed three times, resuspended in 500 μL of 0.5% BSA in PBS, and analyzed on a BD FACSCalibur flow cytometer using Cell Quest Pro software (BD Biosciences).

[1] = test system: polySia in formalin-fixed, paraffin-embedded (FFPE) human tissue sections of SCLC; assay: IHC of FFPE tissue sections
Text: FIGS. 6A-6D depict immunostaining of antibody ch735 to polySia-expressing cancer cells. […] Data are the geometric mean fluorescence intensity (MFI), with the values reported as the average of three replicates and the error represented as the standard deviation of the mean. […] Cells were stained with ch735, wheat germ agglutinin (WGA) to stain the cell membrane, and Hoescht to stain nuclei. Scale bars, 10 μm. […] Scale bars, 200 μm.
The avidin-biotin complex (ABC) immunoperoxidase method was performed essentially as previously described (Zhang et al., “Selection of Tumor Antigens as Targets for Immune Attack Using Immunohistochemistry: I. Focus on Gangliosides,” Int. J. Cancer 73:42-9 (1997), which is hereby incorporated by reference in its entirety). Briefly, the sections were quenched with 0.1% H2O2 in PBS for 15 min, blocked with avidin and biotin reagents (Vector, Burlingame, Calif.) for 10 min each, incubated in 10% serum from which the second antibody was raised and incubated with mAb 735 at 1 μg/ml for 1 h. This concentration was selected based on strong reactivity against known positive target cells and little or no background against stroma. The sections were subsequently incubated with biotinylated secondary antibodies for 30 min, and then incubated in ABC reagent per manufacturer's protocols (ABC Kit, Vector Laboratories, PK-6102) for 30 min. […]

B1: mo735: well-known mouse-derived IgG2a monoclonal antibody 735 targeting polysialic acid (antibody, V domains shown)
VH: QIQLQQSGPELVRPGASVKISCKASGYTFTDYYIHWVKQRPGEGLEWIGWIYPGSGNTKYNEKFKGKATLTVDTSSSTAYMQLSSLTSEDSAVYFCARGGKFAMDYWGQGTSVTVSS
VL: DVVMTQTPLSLPVSLGDQASISCRSSQSLVHSNGNTYLYWYLQKPGQSPKPLIYRVSNRFSGVPDRFSGSGSGTDFTLKISRVEAEDLGVYFCFQGTHVPYTFGGGTRLEIK
population (FL1-H-) binding below the level of wild-type SW2 cells (ST8SiaIV KO SW2 cells): 68%
IHC staining of polySia ([1]; FFPE human SCLC tissue sections): strong staining
IHC staining of polySia ([1]; adjacent normal tissue, except bronchial epithelial cells and alveolar macrophages): little to no staining

Source: patent US20200277405A1, “COMPOSITION FOR ANTIBODY-DRUG CONJUGATE DIRECTED AGAINST TUMOR-CELL ASSOCIATED POLYSIALIC ACID” (Cornell University, priority 2019, published 2020)
